For assay [1], the target named is T1, HLA-A2 on T2 cells pulsed with NY-ESO-1:157-165, wt peptide (C165) (human).
T1 construct: also called T2 Pulsed NY-ESO-1_157-165
The assay can be described thus: flow cytometry, peptide-pulsed T2 cells. Background: Flow cytometry measures light scatter and fluorescence of single cells or particles in a stream.

The target in assay [2] is T2, monomeric HLA-A2:NY-ESO-1(156-165) (V at position 165) peptide complex, 2906.
T2 construct: also called soluble HLA-A2:NY-ESO-1 peptide complex
The assay can be described thus: SPR, 25 C, antibody captured, monomeric complex injected.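 Note: antibody held on sensor chip via immobilized anti-human or anti-mouse Fc antibody, rate constants derived by fitting sensorgrams to a 1:1 binding model.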

Assay [3] deals with HLA-A2 on T2 cells pulsed with BCL9L: 1351-1359 peptide (human). The assay is described as follows: flow cytometry, 10 ug/ml, pulsed T2 cells.
The target of assay [4] is HLA-A2 on T2 cells pulsed with MAGEH1: 90-98 peptide (human). The assay can be described thus: flow cytometry, 10 ug/ml, pulsed T2 cells.
Assay [5] has as its target T1, HLA-A2 on T2 cells pulsed with …. The assay is described as follows: flow cytometry, 10 ug/ml, pulsed T2 cells.
Assay [6] addresses HLA-A2 on T2 cells pulsed with ITCH (807-815) peptide (human). The assay is described as follows: flow cytometry, 10 ug/ml, pulsed T2 cells.
In assay [7] the target is HLA-A2 on T2 cells pulsed with GRID1: 7-15 peptide (human). The assay is described as follows: flow cytometry, 10 ug/ml, pulsed T2 cells.
Assay [8] has as its target HLA-A2 on T2 cells pulsed with EARS2: 306-314 peptide (human). The assay can be described thus: flow cytometry, 10 ug/ml, pulsed T2 cells.
In assay [9] the target is HLA-A2 on T2 cells pulsed with FBXL22: 4-12 peptide (human). The assay can be described thus: flow cytometry, 10 ug/ml, pulsed T2 cells.
Assay [10] concerns the target HLA-A2 on T2 cells pulsed with URB1: 1853-1861 peptide (human). The assay can be described thus: flow cytometry, 10 ug/ml, pulsed T2 cells.
The target in assay [11] is HLA-A2 on T2 cells pulsed with ZDHHC1 (376-384) peptide (human). The assay is described as follows: flow cytometry, 10 ug/ml, pulsed T2 cells.
Assay [12] addresses T2, monomeric HLA-A2:NY-ESO-1(156-165) (V …). The assay is described as follows: SPR, 37 C, antibody captured, monomeric complex injected.

What is called EC50 is the concentration needed to bring the measured effect to its halfway point. A lower EC50 goes with a more potent agent. The term Kd denotes a measure of binding affinity in units of concentration. Lower therefore signals tighter binding. In general, koff refers to the rate constant with which the complex falls apart. Read a low koff as a long-lived complex. In general, kon refers to the rate constant with which the complex forms. One may read the t½ as how long it takes for the measured level to halve.

B1: mAb28042P (antibody, human IgG4 S228P, kappa, V domains shown)
VH: QLQLQESDPGLVKPSETLSLTCTVSGDSIRNSNYYWGWIRQPPGKGLEWIGSIYFSGRTYFNPSLKSRVTIPVDMSKNQFSLMLNSVTATDTAVYYCARHGGITAAGGFFDYWGQGTLVTVSS
VL: DIQMTQSPSSLSASVGDRVTITCQASQDISNYLNWYQQKPGKAPNVLIYDASNLETGVPSRFSGSGSGTDFTFTISSLQPEDFATYYCQQNDNLPLTFGGGTKVEIKR
In assay [1], B1 returned an EC50 of 1.6 nM. For the same molecule, the figures for the Kd in [2] and in [12] were 0.55 nM and 2.09 nM, respectively. For the same molecule, the koff in assay [2] came out at 0.000199 s⁻¹; in assay [12], 0.00117 s⁻¹. Besides, the results for the kon in assay [2] and in assay [12] were 362000 M⁻¹ s⁻¹ and 561000 M⁻¹ s⁻¹, respectively. The t½ in assay [2] is 58 min; in assay [12], 9.9 min. The “ratio of MFI, pulsed to unpulsed” value in [3] came out at 46.5 ratio; in assay [4], 0.4 ratio; in assay [5], 134 ratio; in [6], 0.7 ratio; in assay [7], 17.4 ratio; in assay [8], 0.6 ratio. Moreover, the “ratio of MFI, pulsed to unpulsed” value in assay [9], in assay [10] and in [11] was 0.5 ratio each time.

B2: mAb28128P (antibody, human IgG4 S228P, kappa, V domains shown)
VH: EVQLVESGGGVVQPGGSLRLSCAASGFIFDDYAMHWVRQVPGKGLEWISLSSGGGGGTYYADPVKGRFTISRDNSKNSLHLQMNSLRAEDTASYYCAKDMVFGVVTPDFFFAMDVWGQGTTVTVSS
VL: DIQMTQSPSSLSASVGDRVTITCRASQSISTYLNWYQQKPGKAPKLLIYGASSLQRGVPSRFSGSGSGTDFTLTISSLQPEDFATYYCQQTYSTPPITFGQGTRLEIKR
In assay [1], B2 showed an EC50 of 0.32 nM. The Kd in assay [2] amounted to 0.16 nM; in assay [12] it was 0.293 nM. For the same molecule, the koff was 0.000185 s⁻¹ in assay [2] and 0.000441 s⁻¹ in [12]. Further, the association rate constant (kon) in [2] came to 1.16e+06 M⁻¹ s⁻¹; in assay [12] it was 1.5e+06 M⁻¹ s⁻¹. Also, the t½ in [2] was 62.5 min; in assay [12], 26.2 min. Also, the “ratio of MFI, pulsed to unpulsed” value in assay [3] came out at 3 ratio; in [4], 0.5 ratio; in [5], 138 ratio; in assay [6], 1 ratio; in [7], 1.6 ratio; in assay [8], 0.6 ratio. For the same molecule, the entries for the “ratio of MFI, pulsed to unpulsed” value in assay [9], in assay [10] and in [11] were 1.3 ratio, 0.6 ratio and 1.6 ratio, respectively.

B3: mAb28037P2 (antibody, human IgG4 S228P, kappa, V domains shown)
VH: QVQLQESGPGLVKPSETLSLTCTVSGDSISVYYWTWIRQPPGKGLEWIGYVHYTGYTNYNPSLKSRVTMSVDTAKKQISLKVRSVTAADTAVYYCARTIPAAAHYYHGTDVWGPGTTVTVSS
VL: DIQMTQSPSSLSASVGDRVTITCQANQDIRKYLNWYQQKSGKAPTLLIYEASNLETGAPSTFSGSGSGTEFTFTISSLRPEDIATYYCQQYESLPLTFGGGTKVEIKR
As for B3, the EC50 in [1] is 0.78 nM. In addition, the dissociation constant Kd in assay [2] was 0.692 nM; in assay [12], 2.76 nM. Besides, the koff is 0.000307 s⁻¹ in assay [2] and 0.00183 s⁻¹ in assay [12]. Further, the kon in assay [2] worked out at 443000 M⁻¹ s⁻¹; in [12], 664000 M⁻¹ s⁻¹. The t½ in assay [2] came out at 37.7 min; in [12] it was 6.3 min. In addition, the “ratio of MFI, pulsed to unpulsed” value in [3] is 52.3 ratio; in assay [4], 0.4 ratio; in [5], 137 ratio; in [6], 1.3 ratio; in assay [7], 0.7 ratio; in assay [8], 0.6 ratio. For the same molecule, the “ratio of MFI, pulsed to unpulsed” value in assay [9] came to 0.5 ratio; in [10], 0.6 ratio; in assay [11], 0.5 ratio.

The values above are taken from patent publication US20220251215A1 (Regeneron, published 2022).
